According to patent US20260242478A1 (published 2026):
Where two headings read alike, the source gives them in different places. Where no end group is shown, it is not given here.

Legend:
[1] = molecular target: T1, Anti-CD28 scFv (VH - linker 1 - VL) (biotinylated (site not stated)); assay: clonal phage ELISA; biotinylated anti-CD28 scFv on neutravidin plate, bound phage detected with anti-M13 HRP
[2] = molecular target: T1, Anti-CD28 scFv (VH - linker 1 - VL); assay: clonal phage ELISA on anti-CD28 scFv plate; wells pre-incubated with soluble CD28 as competitor
Method: Clonal phage were harvested as crude supernatants and screened via standard enzyme linked immunosorbent assays (ELISAs). […] Prior to the addition of clonal phage, wells were incubated with blocking buffer and CD28 soluble protein or blocking buffer alone. Without washing or aspirating, clonal phage supernatants were then added to the wells and incubated for a short time. Wells were then washed followed by detection of bound phage using a horse radish peroxidase conjugated anti-M13 antibody.

anti-CD28 Fab [3] = assay: competition ELISA, peptide titrated 0-100 uM against 1 nM anti-CD28 Fab, plate-bound CD28 as competitor
Target sequence in this assay (VH, as listed by the source, chain 1 of 2): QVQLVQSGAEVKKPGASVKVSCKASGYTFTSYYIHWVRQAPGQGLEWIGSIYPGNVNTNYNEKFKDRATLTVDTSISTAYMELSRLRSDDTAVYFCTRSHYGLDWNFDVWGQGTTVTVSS
Target sequence in this assay (VL, as listed by the source, chain 2 of 2): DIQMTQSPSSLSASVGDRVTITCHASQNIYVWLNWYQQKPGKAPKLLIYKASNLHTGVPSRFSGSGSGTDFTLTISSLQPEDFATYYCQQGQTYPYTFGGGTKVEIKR

anti-CD28 Fab [4] = assay: as above; remark: listed apart in the source
Target sequence in this assay (VH, as listed by the source, chain 1 of 2): as the sequence (VH, as listed by the source, chain 1 of 2) above
Target sequence in this assay (VL, as listed by the source, chain 2 of 2): as the sequence (VL, as listed by the source, chain 2 of 2) above

anti-CD28 Fab [5] = assay: as above; remark: listed apart in the source
Target sequence in this assay (VH, as listed by the source, chain 1 of 2): as the sequence (VH, as listed by the source, chain 1 of 2) above
Target sequence in this assay (VL, as listed by the source, chain 2 of 2): as the sequence (VL, as listed by the source, chain 2 of 2) above

PSMA Fab [6] = molecular target: T2, PSMA Fab; assay: binding ELISA; PSMA Fab titrated on plate-captured biotinylated peptide
T2 construct: also called 006 PSMA Fab; anti-PSMA Fab

PSMA Fab [7] = molecular target: T2, PSMA Fab; assay: BLI (Octet); PSMA Fab on sensor-loaded biotinylated peptide, 1:1 model
PSMA Fab [8] = molecular target: T2, PSMA Fab; assay: competition ELISA; peptide 0-100 µM with 0.3 nM PSMA Fab on plate-captured biotinylated PSMA
anti-CD28 Fab [9] = assay: BLI (Octet): biotinylated peptide on streptavidin sensor, anti-CD28 Fab titrated in solution, 1:1 model
Target sequence in this assay (VH, as listed by the source, chain 1 of 2): as the sequence (VH, as listed by the source, chain 1 of 2) above
Target sequence in this assay (VL, as listed by the source, chain 2 of 2): as the sequence (VL, as listed by the source, chain 2 of 2) above

[10] = molecular target: T3, anti-CD28 scFv (disulfide); assay: competition ELISA: peptide titrated (0-100 µM) with 0.3 nM anti-CD28 scFv (disulfide), binding to plate-bound CD28
T3 construct: also called Anti-CD28 scFv (VH - linker 1 - VL) Disulfide mutation: G44C, G235C

PSMA Fab [11] = molecular target: T2, PSMA Fab; assay: competition ELISA; peptide 0-100 µM with 0.3 nM PSMA Fab on plate-captured biotinylated PSMA; remark: listed apart in the source
Method: (§1) The concentration of peptide required to reduce the maximum signal by 50% (IC₅₀) was calculated in Graphpad Prism software.

PSMA Fab [12] = molecular target: T2, PSMA Fab; assay: as above; remark: listed apart in the source
Method: as §1

T1 sequence (scFv, as listed by the source): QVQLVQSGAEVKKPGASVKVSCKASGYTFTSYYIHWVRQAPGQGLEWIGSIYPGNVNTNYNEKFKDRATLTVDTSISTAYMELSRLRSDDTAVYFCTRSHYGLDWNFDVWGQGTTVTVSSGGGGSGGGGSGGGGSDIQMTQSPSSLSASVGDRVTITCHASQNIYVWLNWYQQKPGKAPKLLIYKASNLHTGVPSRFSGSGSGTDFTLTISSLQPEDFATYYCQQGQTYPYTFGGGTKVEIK
T3 sequence (scFv, as listed by the source): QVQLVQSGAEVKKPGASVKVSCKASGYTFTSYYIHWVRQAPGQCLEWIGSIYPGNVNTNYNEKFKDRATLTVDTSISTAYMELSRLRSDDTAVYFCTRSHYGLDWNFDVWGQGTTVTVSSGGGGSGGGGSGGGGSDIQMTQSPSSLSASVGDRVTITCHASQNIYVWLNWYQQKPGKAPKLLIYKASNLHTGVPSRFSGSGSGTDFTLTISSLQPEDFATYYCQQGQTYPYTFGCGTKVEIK

B1: Phage-445 (peptide)
peptide: MDWCPRARWHDCFF
notes: Clone of the Peptide-9 optimisation library
[1]
  CD28 scFv signal: 0.497
[2]
  CD28 scFv signal in presence of CD28: 0.138

## SCAAGASYAWPYCL [Peptide-92]
anti-CD28 Fab [3]
  IC50: 7.89 µM
anti-CD28 Fab [4]
  IC50: 11.8 µM
anti-CD28 Fab [5]
  IC50: 2.39 µM

## HVKLCKPAWMCQGL [Peptide-219]
PSMA Fab [6]
  EC50: 0.0061 µM
PSMA Fab [7]
  Off rate t1/2: 2.9 min

B2: Phage-447 (peptide)
peptide: MDWCPRDRWDVCYY
notes: as for B1
[1]
  CD28 scFv signal: 0.074
[2]
  CD28 scFv signal in presence of CD28: 0.073

## IPKSCIPSWMCTGF [Peptide-225]
PSMA Fab [8]
  IC50: 0.34 µM
PSMA Fab [6]
  EC50: 0.0097 µM
PSMA Fab [7]
  Off rate t1/2: 2.1 min

## LDKWCVPKWMCSGL [Peptide-232]
PSMA Fab [8]
  IC50: 0.96 µM
PSMA Fab [6]
  EC50: 0.0072 µM
PSMA Fab [7]
  Off rate t1/2: 2.1 min

## YCMGHSHEHIWKCL [Peptide-97]
anti-CD28 Fab [5]
  IC50: 69.1 µM

## VEKLCTPIWMCLGF [Peptide-235]
PSMA Fab [8]
  IC50: 0.32 µM
PSMA Fab [6]
  EC50: 0.0105 µM
PSMA Fab [7]
  Off rate t1/2: 2.3 min

## YCAGHTEEHYVKCM [Peptide-96]
anti-CD28 Fab [5]
  IC50: 7.59 µM

## YCAGHMPQYEVKCL [Peptide-95]
anti-CD28 Fab [5]
  IC50: 43.6 µM

## DVKLCKPEWMCYGL [Peptide-236]
PSMA Fab [8]
  IC50: 0.38 µM
PSMA Fab [6]
  EC50: 0.0198 µM
PSMA Fab [7]
  Off rate t1/2: 1.8 min

## LDNWCKPSWMCTGF [Peptide-227]
PSMA Fab [8]
  IC50: 0.76 µM
PSMA Fab [6]
  EC50: 0.0077 µM
PSMA Fab [7]
  Off rate t1/2: 2.1 min

B3: Phage-442 (peptide)
peptide: IYWCPIDRWNDCYN
notes: as for B1
[1]
  CD28 scFv signal: 0.867
[2]
  CD28 scFv signal in presence of CD28: 0.164

## IDIRCTPIWMCVGF [Peptide-239]
PSMA Fab [8]
  IC50: 0.62 µM
PSMA Fab [6]
  EC50: 0.0094 µM
PSMA Fab [7]
  Off rate t1/2: 2 min

B4: Phage-449 (peptide)
peptide: MVDCPLISFDECLA
notes: as for B1
[1]
  CD28 scFv signal: 0.07
[2]
  CD28 scFv signal in presence of CD28: 0.076

## YCEGHLPEYRNKCL (cysteine pairing not given here; also: biotinylated, site not given here) [Peptide-132]
anti-CD28 Fab [9]
  Kd: 0.11 µM
  t1/2: 0.8 min
[10]
  IC50: 0.78 µM

B5: Peptide-134 (peptide)
peptide: YCEGHLPEYIQKCL
modifications: not fully specified; cysteine pairing not given here; also: biotinylated, site not given here
anti-CD28 Fab [9]
  t1/2: 1 min
[10]
  IC50: 0.48 µM

B6: Phage-450 (peptide)
peptide: EDWCPTDVWPYCFS
notes: as for B1
[1]
  CD28 scFv signal: 0.711
[2]
  CD28 scFv signal in presence of CD28: 0.157

B7: Phage-448 (peptide)
peptide: MAWCPWASFDECLA
notes: as for B1
[1]
  CD28 scFv signal: 0.089
[2]
  CD28 scFv signal in presence of CD28: 0.109

B8: Phage-451 (peptide)
peptide: MDWCPRFWWHECYA
notes: as for B1
[1]
  CD28 scFv signal: 2.4
[2]
  CD28 scFv signal in presence of CD28: 0.503

B9: Phage-452 (peptide)
peptide: MDWCPRDWWHMCFN
notes: as for B1
[1]
  CD28 scFv signal: 2.12
[2]
  CD28 scFv signal in presence of CD28: 0.243

## AAVLCQPNWMCAGF (Alanine-scan variant I1A of Peptide-180) [Peptide-251]
PSMA Fab [11]
  IC50: 8.45 µM

B10: Peptide-259 (peptide)
peptide: IAVLCQPNWMCAAF
notes: Alanine-scan variant G13A of Peptide-180
PSMA Fab [11]
  IC50: 67.9 µM

## IAVLCAPNWMCAGF (Alanine-scan variant Q6A of Peptide-180) [Peptide-254]
PSMA Fab [11]
  IC50: 15.7 µM

## IAALCQPNWMCAGF (Alanine-scan variant V3A of Peptide-180) [Peptide-252]
PSMA Fab [11]
  IC50: 5.7 µM

## IAVLCQPAWMCAGF (Alanine-scan variant N8A of Peptide-180) [Peptide-256]
PSMA Fab [11]
  IC50: 2.16 µM

## IAVACQPNWMCAGF (Alanine-scan variant L4A of Peptide-180) [Peptide-253]
PSMA Fab [11]
  IC50: 28.2 µM

B11: Peptide-260 (peptide)
peptide: IAVLCQPNWMCAGA
notes: Alanine-scan variant F14A of Peptide-180
PSMA Fab [11]
  IC50: 60 µM

## GEKWCIPDWMCSGF [Peptide-233]
PSMA Fab [8]
  IC50: 0.36 µM
PSMA Fab [6]
  EC50: 0.0069 µM
PSMA Fab [7]
  Off rate t1/2: 3.9 min

B12: Phage-453 (peptide)
peptide: MDWCPSDYWYVCFA
notes: as for B1
[1]
  CD28 scFv signal: 0.707
[2]
  CD28 scFv signal in presence of CD28: 0.08

## LMKWCTPRWMCAAE (cysteine pairing not given here; also: biotinylated, site not given here, PSMA mask peptide) [Peptide-179]
PSMA Fab [8]
  IC50: 7.71 µM
PSMA Fab [6]
  EC50: 0.11 µM
PSMA Fab [12]
  IC50: 6.49 µM
PSMA Fab [7]
  Off rate t1/2: 1.2 min

## LMKWCTPRWMCAAA [Peptide-250]
PSMA Fab [12]
  IC50: 6.64 µM

## LMKACTPRWMCAAE [Peptide-244]
PSMA Fab [12]
  IC50: 34.5 µM

## LMKWCAPRWMCAAE [Peptide-245]
PSMA Fab [12]
  IC50: 49.7 µM

## LMAWCTPRWMCAAE [Peptide-243]
PSMA Fab [12]
  IC50: 40.8 µM

## LAKWCTPRWMCAAE [Peptide-242]
PSMA Fab [12]
  IC50: 13.7 µM

## LMKWCTPAWMCAAE [Peptide-247]
PSMA Fab [12]
  IC50: 19.7 µM

## AMKWCTPRWMCAAE [Peptide-241]
PSMA Fab [12]
  IC50: 9.16 µM

B13: Phage-443 (peptide)
peptide: MDWCPMTRWNDCYF
notes: as for B1
[1]
  CD28 scFv signal: 0.671
[2]
  CD28 scFv signal in presence of CD28: 0.078

## YCAGHSHEYLAKCE [Peptide-98]
anti-CD28 Fab [5]
  IC50: 7.04 µM

B14: Phage-446 (peptide)
peptide: MDWCPRDRWDDCFN
notes: as for B1
[1]
  CD28 scFv signal: 0.45
[2]
  CD28 scFv signal in presence of CD28: 0.077

## VTKWCIPPWMCEVT [Peptide-230]
PSMA Fab [7]
  Off rate t1/2: 6.4 min
